Laboratory results taken from the Immune Epitope Database (IEDB).

target: HLA-A*02:01; test: IEDB peptide-MHC binding, cellular MHC/competitive/fluorescence; ≥ and ≤ were set here for values at or beyond the usual limits of such assays; details: source organism: Human papillomavirus 16

Sequence	IC50 [µM]
EDLLMGTLGIV	14.2
ELQTTIHDI	36.9
EYMLDLQPET	45.3
IRTLEDLLMGT	31.9
MLDLQPET	53.7
RTLEDLLMGT	66.9
RTLEDLLMGTL	2.69
TLEDLLMGT	64.6
TLHEYMLDLQP	19.4
YMLDLQPE	8.07
YMLDLQPETTD	2.37
